Results as given in patent US20140087995A1 (published 2014).
Numbered stars: 1 amine (or outer) side, 2 acyl side, 3 side chain; on linkers, the order of the positions; unused ones are H or OH. Bridge positions count the residues as written; N and C are the ends. Side chains are listed from the residue outwards. Ends that are not written are not given here. * marks the point of attachment. C20 diacid = O=C(O)CCCCCCCCCCCCCCCCCCC(=O)*; γGlu = O=C(O)[C@H](CCC(=O)[*:2])N[*:1]

T1: human calcitonin receptor (human, UniProt P30988 25-474)
T1 sequence (looked up): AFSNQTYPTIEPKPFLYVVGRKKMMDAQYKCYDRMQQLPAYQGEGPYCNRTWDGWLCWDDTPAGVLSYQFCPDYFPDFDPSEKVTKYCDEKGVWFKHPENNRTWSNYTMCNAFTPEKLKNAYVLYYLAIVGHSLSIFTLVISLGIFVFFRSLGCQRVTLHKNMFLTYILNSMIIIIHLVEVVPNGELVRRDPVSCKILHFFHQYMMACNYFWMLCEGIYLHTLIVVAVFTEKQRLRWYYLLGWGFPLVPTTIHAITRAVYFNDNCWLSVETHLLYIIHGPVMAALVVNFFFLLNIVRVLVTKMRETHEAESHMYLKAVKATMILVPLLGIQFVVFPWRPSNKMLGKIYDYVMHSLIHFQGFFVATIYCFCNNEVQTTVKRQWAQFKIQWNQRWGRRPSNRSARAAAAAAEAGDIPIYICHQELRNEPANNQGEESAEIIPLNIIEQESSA

T2: human amylin 3(a) receptor (human calcitonin receptor co-expressed with RAMP-3) (human, UniProt P30988 25-474; O60896 24-148, limits assumed)
T2 sequence (looked up) 1: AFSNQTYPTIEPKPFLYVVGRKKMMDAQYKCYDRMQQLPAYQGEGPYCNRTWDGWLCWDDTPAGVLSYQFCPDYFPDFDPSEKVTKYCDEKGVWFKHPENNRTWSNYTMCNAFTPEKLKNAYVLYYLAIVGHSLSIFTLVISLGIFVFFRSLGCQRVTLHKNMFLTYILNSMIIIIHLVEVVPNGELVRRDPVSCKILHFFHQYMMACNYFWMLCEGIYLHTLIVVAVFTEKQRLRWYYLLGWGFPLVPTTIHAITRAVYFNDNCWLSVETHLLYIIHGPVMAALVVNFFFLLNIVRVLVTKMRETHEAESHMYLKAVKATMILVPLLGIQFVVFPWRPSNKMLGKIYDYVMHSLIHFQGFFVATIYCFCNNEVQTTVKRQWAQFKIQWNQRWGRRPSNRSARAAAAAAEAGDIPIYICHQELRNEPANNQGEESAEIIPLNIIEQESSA
T2 sequence (looked up) 2: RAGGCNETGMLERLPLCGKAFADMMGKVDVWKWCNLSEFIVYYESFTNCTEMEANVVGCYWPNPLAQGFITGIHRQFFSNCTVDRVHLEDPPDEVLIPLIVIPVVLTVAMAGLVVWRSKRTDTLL


How the values were obtained:
[1] = biological target: T1, human calcitonin receptor; experiment: cell-based or functional assay
[2] = biological target: T2, human amylin 3(a) receptor (human …); experiment: cell-based or functional assay

| Binder | Ratio hCT/hAmylin funct. [1] | hCTR funct. EC50 [1] | hAmylin-R funct. EC50 [2] |
| --- | --- | --- | --- |
| K([γGlu-C20 diacid])CNTATCATQRLAEFLRHSSPNFGAIPSSTNVGPETY-NH2 (disulfide 2-7; N-terminus assumed; SMILES CC[C@H](C)[C@H](NC(=O)[C@H](C)NC(=O)CNC(=O)[C@H](Cc1ccccc1)NC(=O)[C@H](CC(N)=O)NC(=O)[C@@H]1CCCN1C(=O)[C@H](CO)NC(=O)[C@H](CO)NC(=O)[C@H](Cc1c[nH]cn1)NC(=O)[C@H](CCCNC(=N)N)NC(=O)[C@H](CC(C)C)NC(=O)[C@H](Cc1ccccc1)NC(=O)[C@H](CCC(=O)O)NC(=O)[C@H](C)NC(=O)[C@H](CC(C)C)NC(=O)[C@H](CCCNC(=N)N)NC(=O)[C@H](CCC(N)=O)NC(=O)[C@@H](NC(=O)[C@H](C)NC(=O)[C@@H]1CSSC[C@H](NC(=O)[C@@H](N)CCCCNC(=O)CC[C@H](NC(=O)CCCCCCCCCCCCCCCCCCC(=O)O)C(=O)O)C(=O)N[C@@H](CC(N)=O)C(=O)N[C@@H]([C@@H](C)O)C(=O)N[C@@H](C)C(=O)N[C@@H]([C@@H](C)O)C(=O)N1)[C@@H](C)O)C(=O)N1CCC[C@H]1C(=O)N[C@@H](CO)C(=O)N[C@@H](CO)C(=O)N[C@H](C(=O)N[C@@H](CC(N)=O)C(=O)N[C@H](C(=O)NCC(=O)N1CCC[C@H]1C(=O)N[C@@H](CCC(=O)O)C(=O)N[C@H](C(=O)N[C@@H](Cc1ccc(O)cc1)C(N)=O)[C@@H](C)O)C(C)C)[C@@H](C)O) | 5.2 | 0.841 nM | 0.161 nM |
| K([γGlu-C20 diacid])CNTATCATQRLAHFLRHSSPNFGAIPSSTNVGRNTY-NH2 (disulfide 2-7; N-terminus assumed; SMILES CC[C@H](C)[C@H](NC(=O)[C@H](C)NC(=O)CNC(=O)[C@H](Cc1ccccc1)NC(=O)[C@H](CC(N)=O)NC(=O)[C@@H]1CCCN1C(=O)[C@H](CO)NC(=O)[C@H](CO)NC(=O)[C@H](Cc1c[nH]cn1)NC(=O)[C@H](CCCNC(=N)N)NC(=O)[C@H](CC(C)C)NC(=O)[C@H](Cc1ccccc1)NC(=O)[C@H](Cc1c[nH]cn1)NC(=O)[C@H](C)NC(=O)[C@H](CC(C)C)NC(=O)[C@H](CCCNC(=N)N)NC(=O)[C@H](CCC(N)=O)NC(=O)[C@@H](NC(=O)[C@H](C)NC(=O)[C@@H]1CSSC[C@H](NC(=O)[C@@H](N)CCCCNC(=O)CC[C@H](NC(=O)CCCCCCCCCCCCCCCCCCC(=O)O)C(=O)O)C(=O)N[C@@H](CC(N)=O)C(=O)N[C@@H]([C@@H](C)O)C(=O)N[C@@H](C)C(=O)N[C@@H]([C@@H](C)O)C(=O)N1)[C@@H](C)O)C(=O)N1CCC[C@H]1C(=O)N[C@@H](CO)C(=O)N[C@@H](CO)C(=O)N[C@H](C(=O)N[C@@H](CC(N)=O)C(=O)N[C@H](C(=O)NCC(=O)N[C@@H](CCCNC(=N)N)C(=O)N[C@@H](CC(N)=O)C(=O)N[C@H](C(=O)N[C@@H](Cc1ccc(O)cc1)C(N)=O)[C@@H](C)O)C(C)C)[C@@H](C)O, also called compound 85) | 26.6 | 3.88 nM | 0.146 nM |
